Columns and labels:
rat ovary genomic DNA = experiment: filter-based DNA-binding assay
Excerpt: To evaluate whether the zinc finger domains of RIZ can bind to DNA, the RIZ finger motifs 1 to 3 from amino acid position 245-573 or finger 4 to 6 from amino acid position 1114-1260 were expressed as GST fusion proteins, GSTZ13 and GSTZ46, respectively. The GST-RIZ fragments were purified by glutathionine agarose chromatography (Guan and Dixon, Anal. Biochem. 192:262-267 (1991), which is incorporated herein by reference) and evaluated for binding in a filter-based DNA-binding assay (Sukegawa and Blobel, Cell 72:29-38 (1993), which is incorporated herein by reference). To obtain GSTZ46, a fragment encoding RIZ (1114-1260) was made by PCR using primers 5′-GTGGTCCAAG AAACATTC-3′ (SEQ ID NO: 17) and 5′-TCGTGTAAAG CTCTTCAG-3′ (SEQ ID NO: 18) and pCMVRIZ as template. The PCR fragment was cloned into pBKS+, then into pGEX-KG (Guan and Dixon, supra, 1991).
The filter-based DNA binding assay was performed by electrophoresing 0.5 μg of purified GST or GST-RIZ fusion proteins by SDS-PAGE and transferring the proteins to nitrocellulose. The proteins were renatured by incubating the nitrocellulose for 3 hr in binding buffer (50 mM Tris-HCl, pH 8, 100 mM KCl, 0.1% Triton X-100™, 10% glycerol, and 0.1 mM ZnCl2). ^32P-labeled, randomly sheared rat ovary genomic DNA was added to the buffer and the nitrocellulose was incubated for an additional 3 hr. […]

wild-type Rb = biological target: T1, wild-type Rb (Homo sapiens, UniProt P06400); experiment: binding of GST-RIZ (245-573) to 35S-labeled Rb, immunoprecipitation with anti-RIZ antiserum
T1 construct: Wild-type (wt) full length Rb (A9); made in house; host or cells: in vitro transcription/translation
T1 sequence (P06400 1-928): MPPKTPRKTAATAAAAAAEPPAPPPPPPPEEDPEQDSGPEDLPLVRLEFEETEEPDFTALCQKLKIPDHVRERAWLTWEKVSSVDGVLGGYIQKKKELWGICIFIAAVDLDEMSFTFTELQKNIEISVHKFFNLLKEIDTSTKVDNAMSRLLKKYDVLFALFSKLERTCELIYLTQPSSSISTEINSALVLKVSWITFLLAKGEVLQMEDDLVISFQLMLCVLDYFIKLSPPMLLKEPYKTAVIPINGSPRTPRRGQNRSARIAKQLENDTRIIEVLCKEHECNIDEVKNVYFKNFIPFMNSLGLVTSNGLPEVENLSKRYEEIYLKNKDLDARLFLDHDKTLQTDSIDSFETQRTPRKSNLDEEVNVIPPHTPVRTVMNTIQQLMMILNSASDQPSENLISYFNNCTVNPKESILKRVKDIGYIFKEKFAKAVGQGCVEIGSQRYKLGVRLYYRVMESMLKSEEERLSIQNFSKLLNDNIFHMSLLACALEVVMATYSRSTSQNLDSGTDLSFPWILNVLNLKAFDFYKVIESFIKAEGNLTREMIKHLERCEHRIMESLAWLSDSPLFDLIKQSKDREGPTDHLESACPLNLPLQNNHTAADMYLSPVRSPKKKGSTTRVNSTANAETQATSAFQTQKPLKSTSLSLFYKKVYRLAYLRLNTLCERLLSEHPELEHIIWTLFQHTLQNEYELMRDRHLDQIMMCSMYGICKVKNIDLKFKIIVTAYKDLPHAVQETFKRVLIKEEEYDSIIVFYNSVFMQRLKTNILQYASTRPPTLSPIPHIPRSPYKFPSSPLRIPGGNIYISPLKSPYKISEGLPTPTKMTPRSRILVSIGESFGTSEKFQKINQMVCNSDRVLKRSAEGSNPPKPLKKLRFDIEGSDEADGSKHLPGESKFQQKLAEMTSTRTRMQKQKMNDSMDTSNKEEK
Experimental: The 56 kD Rb fragment that binds to RIZ is a C-terminal fragment containing the Rb pocket binding region and a C-terminal extension. To further define the portion of 56 kD Rb that binds to RIZ, several Rb mutant polypeptides were tested for binding to RIZ. Mutant and full length Rb were cloned and in vitro transcribed/translated as described previously (Huang et al., supra, 1990). H209 is a point mutation resulting in a single amino acid change in Rb that was identified in the small cell lung cancer H209 cell line (American Type Culture Collection (ATCC) #HTB 172). The various Rb forms were tested for binding to glutathionine S-transferase (GST) fused to a fragment of RIZ from amino acid position 245-573 (GST-RIZ (245-573)). This RIZ fragment contains all of the E1A motifs related to binding Rb and was constructed by cloning a Stu I-Hpa I RIZ fragment (nucleotide 795-3068) into vector pBSK+ to make pBSK+SH. An Eco RI fragment was removed from pBSK+SH and ligated into pGEX-KG to produce vector pKG7.1S containing GST-RIZ (245-573).
The binding between purified GST-RIZ (245-573) and the above radiolabeled Rb wild-type and deletion mutants was determined by immunoprecipitation with an anti-RIZ antiserum followed by SDS-PAGE and autoradiography. […]

binding to 32P-labeled rat DNA (rat ovary genomic DNA; 0.5 μg protein, binding buffer with 0.1 mM ZnCl2): bound | zinc dependence of DNA binding (rat ovary genomic DNA; with ZnCl2 versus 10 mM EDTA, 2 mM DTT and no ZnCl2): Zn^++ ion dependent manner | binding to wild-type Rb (wild-type Rb): showed binding
B1: GST-RIZ (245-573): glutathionine S-transferase fused to RIZ fragment a.a. 245-573 containing zinc fingers 1-3 (protein)
chain: CEPQPEVDGKQEVTDCEVNDVEEEELEEEEELEEEEEEELGEDGVEEADMPNESSAKEPEIRCEEKPEDLLEEPQSMSNEAREDSPDVTPPPHTPRAREEANGDVLETFMFPCQHCERKFATKQGLERHMHIHISTINHAFKCKYCGKRFGTQINRRRHERRHETGLKRRPSMTLQSSEDPDDGKGENVTSKDESSPPQLGQDCLILNSEKTSQEVLNSSFVEENGEVKELHPCKYCKKVFGTHTNMRRHQRRVHERHLIPKGVRRKGGLLEEPQPPAEQAPPSQNVYVPSTEPEEEGETDDVYIMDISSNISENLNYYIDGKIQTNSS
modifications: left off: a dimerising Fc or GST

From patent publication US6468985B1, “Retinoblastoma protein-interacting zinc finger proteins” (The Burnham Institute, priority 1994, dated 2002)
